Measured values taken from patent publication US10487348B2, “3-alpha-hydroxysteroid dehydrogenase mutants and process for the preparation of ursodeoxycholic acid” (Pharmazell GmbH, priority 2014, dated 2019).
“Also recorded” adds a separate entry of the source. Where two headings read alike, the source gives them in different places. Marks after values point to notes of the source that are not given here.

Experiments:
[1] = substrate: C[C@H](CCC(=O)O)[C@H]1CC[C@H]2[C@@H]3C(=O)C[C@@H]4CC(=O)CC[C@]4(C)[C@H]3CC(=O)[C@]12C; assay: cells, lysate or membranes named; details: pH 8.0, 25.0 °C
[2] = test system: 3α-HSDH; substrate DHCA; assay type: biochemical, Comamonas testosteroni
[3] = target: 3α-HSDH; substrate DHCA (Comamonas testosteroni, UniProt P80702, R34N); assay type: biochemical; details: versus wild type
[4] = test system: 3α-HSDH; substrate DHCA; assay type: biochemical, Comamonas testosteroni; details: substrate DHCA; FIGS. 8A-8B; listed as dual mutant
[5] = target: 3α-HSDH; substrate DHCA (Comamonas testosteroni, UniProt P80702, L68A/R34N); assay type: biochemical; details: purified enzyme
[6] = target: T1, 3α-HSDH; substrate DHCA (Comamonas testosteroni, UniProt P80702); assay type: biochemical
T1 sequence (P80702 whole entry, looked up): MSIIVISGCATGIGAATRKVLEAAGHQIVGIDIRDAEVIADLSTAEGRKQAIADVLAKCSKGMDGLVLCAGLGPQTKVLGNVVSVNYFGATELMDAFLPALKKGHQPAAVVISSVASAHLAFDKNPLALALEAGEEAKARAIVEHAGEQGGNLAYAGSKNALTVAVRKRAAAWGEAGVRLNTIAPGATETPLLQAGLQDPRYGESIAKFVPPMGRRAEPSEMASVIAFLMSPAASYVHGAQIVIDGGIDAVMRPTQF

[7] = substrate: NC(=O)C1=CN([C@@H]2O[C@H](COP(=O)(O)OP(=O)(O)OC[C@H]3O[C@@H](n4cnc5c(N)ncnc54)[C@H](O)[C@@H]3O)[C@@H](O)[C@H]2O)C=CC1; assay: purified protein, by the assay type; details: other: Table 15, substrate NADH; without tag; apparent values; pH 8.0; 25.0 °C
[8] = substrate: NC(=O)C1=CN([C@@H]2O[C@H](COP(=O)(O)OP(=O)(O)OC[C@H]3O[C@@H](n4cnc5c(N)ncnc54)[C@H](O)[C@@H]3O)[C@@H](O)[C@H]2O)C=CC1; assay: Michaelis-Menten kinetics of wild-type 3α-HSDH with N-terminal His tag; assay type: biochemical, Comamonas testosteroni; details: other: Table 15, substrate NADH, apparent values, pH 8.0
Source text: The His-tag allows for very simple purification of the HSDH protein since this sequence is bound with high specificity by specific chromatographic material (NTA (Ni-nitrilotriacetate)-modified support material, loaded with divalent nickel ions, for example “His Pur Ni-NTA” (Nimagen B. V., Nijmegen, The Netherlands)). To this end, the cell-free crude extract is applied to a dropping column comprising this material, which dropping column has previously been equilibrated with the disruption buffer (3 to 5 column volumes). Weakly binding protein was removed by washing with 3 to 5 column volumes of wash buffer (20 mM imidazole, 50 mM sodium phosphate, 300 mM NaCl, pH 8). The His-tag-3α-HSDH protein was eluted with imidazole-comprising elution buffer (250 mM imidazole, 50 mM sodium phosphate, 300 mM NaCl, pH 8). The process was carried out at room temperature. The imidazole which was present was to be removed by buffer exchange.
(§1) The activity of the 3α-HSDH and of the mutants was determined using a photometric assay, where the decrease in absorbance was measured at 340 nm over a period of 30 seconds.
(§2) The targeted exchange of amino acid radicals was performed analogously to Example 2B.
Following cultivation and expression, the cells were harvested, and the specific activities of the cell-free crude extracts were determined at substrate concentrations of 10 mM DHCA. The enzyme variants where the activity measurements with crude extract enzyme were most promising were purified by means of Ni-NTA chromatography, […] In addition, an expression check by means of SDS PAGE was carried out for all mutants.

[9] = substrate: C[C@H](CCC(=O)O)[C@H]1CC[C@H]2[C@@H]3C(=O)C[C@@H]4CC(=O)CC[C@]4(C)[C@H]3CC(=O)[C@]12C; assay: Kinetics of 3α-HSDH [T188G], N-terminal His tag; assay type: biochemical, Comamonas testosteroni; details: other: Table 14, substrate DHCA, apparent values, pH 8.0
Description: as §1, §2
Following cultivation and expression, the cells were harvested, and the specific activities of the cell-free crude extracts were determined at substrate concentrations of 10 mM DHCA. The enzyme variants where the activity measurements with crude extract enzyme were most promising were purified by means of Ni-NTA chromatography, and their kinetic constants were determined by measurements with different DHCA concentrations of between 10 μM and 20 mM. In addition, an expression check by means of SDS PAGE was carried out for all mutants.

[10] = Table 4, variants modified at position 34
[11] = Table 9, crude extract, dual mutant position 34 and 68
[12] = Table 7, variants modified at position 68
[13] = other: crude extract (without His tag), DHCA, read from the diagram

B1: Comamonas testosteroni 3α-HSDH, wild type, C-terminal 9×His tag (SEQ ID NO: 51) (Comamonas testosteroni) (protein)
chain: MSIIVISGCATGIGAATRKVLEAAGHQIVGIDIRDAEVIADLSTAEGRKQAIADVLAKCSKGMDGLVLCAGLGPQTKVLGNVVSVNYFGATELMDAFLPALKKGHQPAAVVISSVASAHLAFDKNPLALALEAGEEAKARAIVEHAGEQGGNLAYAGSKNALTVAVRKRAAAWGEAGVRLNTIAPGATETPLLQAGLQDPRYGESIAKFVPPMGRRAEPSEMASVIAFLMSPAASYVHGAQIVIDGGIDAVMRPTQFLEHHHHHHHHH
Work on B1 yielded a Km ([1]; other: His tag length 9, DHCA 10 μM-10 mM, NADH 0.2 mM, purified) of 70.5 ± 14.2 µM.

B2: 3α-HSDH [R34N] (protein)
chain: MSIIVISGCATGIGAATRKVLEAAGHQIVGIDINDAEVIADLSTAEGRKQAIADVLAKCSKGMDGLVLCAGLGPQTKVLGNVVSVNYFGATELMDAFLPALKKGHQPAAVVISSVASAHLAFDKNPLALALEAGEEAKARAIVEHAGEQGGNLAYAGSKNALTVAVRKRAAAWGEAGVRLNTIAPGATETPLLQAGLQDPRYGESIAKFVPPMGRRAEPSEMASVIAFLMSPAASYVHGAQIVIDGGIDAVMRPTQFLEHHHHHH
In the case of B2, the Specific activity [2, 10] is reported as 3.0 U/mg, the Volumetric activity [2, 10] is reported as 58.0 U/ml and the “activity improved (best mutant at position 34)” value [3] is reported as “approx. 3 fold”.

B3: 3α-HSDH [R34N/L68A] (protein)
chain: MSIIVISGCATGIGAATRKVLEAAGHQIVGIDINDAEVIADLSTAEGRKQAIADVLAKCSKGMDGLVACAGLGPQTKVLGNVVSVNYFGATELMDAFLPALKKGHQPAAVVISSVASAHLAFDKNPLALALEAGEEAKARAIVEHAGEQGGNLAYAGSKNALTVAVRKRAAAWGEAGVRLNTIAPGATETPLLQAGLQDPRYGESIAKFVPPMGRRAEPSEMASVIAFLMSPAASYVHGAQIVIDGGIDAVMRPTQFLEHHHHHH
B3 was tested, and the “activity compared with the wild type with His tag (courses of Michaelis-Menten kinetics)” value [4] was “not being quite as active as the wild type at low substrate concentrations; also recorded: markedly higher activities than the wild-type enzyme at higher substrate concentrations”, the “increase of the maximum activity over the wild type” value [5] was “approx. 25%” and the Specific activity [2, 11] was 4.5 U/mg. It also gave a Volumetric activity [2, 11] of 139.7 U/ml.

B4: 3α-HSDH (WT): Comamonas testosteroni 3α-HSDH wild type, C-terminally extended by His-Tag LEHHHHHH (SEQ ID NO: 5) (protein)
chain: MSIIVISGCATGIGAATRKVLEAAGHQIVGIDIRDAEVIADLSTAEGRKQAIADVLAKCSKGMDGLVLCAGLGPQTKVLGNVVSVNYFGATELMDAFLPALKKGHQPAAVVISSVASAHLAFDKNPLALALEAGEEAKARAIVEHAGEQGGNLAYAGSKNALTVAVRKRAAAWGEAGVRLNTIAPGATETPLLQAGLQDPRYGESIAKFVPPMGRRAEPSEMASVIAFLMSPAASYVHGAQIVIDGGIDAVMRPTQFLEHHHHHH
modifications: C-terminal His-tag LEHHHHHH
For B4, the substrate excess inhibition [6] was “no longer demonstrates the pronounced substrate excess inhibition”, the Specific activity [2, 10] was 2.1 U/mg and the Volumetric activity [2, 10] was 38.0 U/ml. The Specific activity [2, 12] was 2.1 U/mg, the Volumetric activity [2, 12] was 44.9 U/ml and the Specific activity [2, 11] was 2.1 U/mg. It also gave a Volumetric activity [2, 11] of 44.9 U/ml.

B5: Comamonas testosteroni 3α-HSDH, wild type, without His tag, SEQ ID NO:4 (Comamonas testosteroni) (protein)
chain: MSIIVISGCATGIGAATRKVLEAAGHQIVGIDIRDAEVIADLSTAEGRKQAIADVLAKCSKGMDGLVLCAGLGPQTKVLGNVVSVNYFGATELMDAFLPALKKGHQPAAVVISSVASAHLAFDKNPLALALEAGEEAKARAIVEHAGEQGGNLAYAGSKNALTVAVRKRAAAWGEAGVRLNTIAPGATETPLLQAGLQDPRYGESIAKFVPPMGRRAEPSEMASVIAFLMSPAASYVHGAQIVIDGGIDAVMRPTQF
In the case of B5, the Km [1, 13] is reported as 200* μM, the Vmax [1, 13] is reported as 25 µmol/min/mg and the Km [7] is reported as 46.9 ± 5.9 µM. The Vmax [7] was 186 µmol/min/mg, the kcat [7] was 88.5 s⁻¹ and the kcat/Km [7] was 1.88e+06 M⁻¹ s⁻¹.

B6: Comamonas testosteroni 3α-HSDH, wild type, N-terminal hexahistidine tag (Comamonas testosteroni) (protein)
chain: MSIIVISGCATGIGAATRKVLEAAGHQIVGIDIRDAEVIADLSTAEGRKQAIADVLAKCSKGMDGLVLCAGLGPQTKVLGNVVSVNYFGATELMDAFLPALKKGHQPAAVVISSVASAHLAFDKNPLALALEAGEEAKARAIVEHAGEQGGNLAYAGSKNALTVAVRKRAAAWGEAGVRLNTIAPGATETPLLQAGLQDPRYGESIAKFVPPMGRRAEPSEMASVIAFLMSPAASYVHGAQIVIDGGIDAVMRPTQF
Work on B6 yielded a Km [8] of 59.2 ± 6.9 µM, a Vmax [8] of 109 µmol/min/mg and a kcat [8] of 47.1 s⁻¹. The kcat/Km [8] was 796000 M⁻¹ s⁻¹.

B7: Comamonas testosteroni 3α-HSDH mutant [T188G], N-terminal hexahistidine tag (Comamonas testosteroni; T188G) (protein)
chain: MSIIVISGCATGIGAATRKVLEAAGHQIVGIDIRDAEVIADLSTAEGRKQAIADVLAKCSKGMDGLVLCAGLGPQTKVLGNVVSVNYFGATELMDAFLPALKKGHQPAAVVISSVASAHLAFDKNPLALALEAGEEAKARAIVEHAGEQGGNLAYAGSKNALTVAVRKRAAAWGEAGVRLNTIAPGAGETPLLQAGLQDPRYGESIAKFVPPMGRRAEPSEMASVIAFLMSPAASYVHGAQIVIDGGIDAVMRPTQF
B7 gave a Km [9] of 1458 ± 182.6 µM, a Vmax [9] of 20.3 ± 0.8 U/mg and a kcat [9] of 9.6 s⁻¹.

B8: Crude extract (without His tag): non-tagged wild-type 3α-HSDH of Comamonas testosteroni (SEQ ID NO: 4) (protein, listed as Comamonas testosteroni)
chain: MSIIVISGCATGIGAATRKVLEAAGHQIVGIDIRDAEVIADLSTAEGRKQAIADVLAKCSKGMDGLVLCAGLGPQTKVLGNVVSVNYFGATELMDAFLPALKKGHQPAAVVISSVASAHLAFDKNPLALALEAGEEAKARAIVEHAGEQGGNLAYAGSKNALTVAVRKRAAAWGEAGVRLNTIAPGATETPLLQAGLQDPRYGESIAKFVPPMGRRAEPSEMASVIAFLMSPAASYVHGAQIVIDGGIDAVMRPTQF
With B8 the “DHCA concentration at which maximum activity is reached” value [6] was “approximately 1 mM”.
